Literature values, collected in paper PMC6244792.
Where “and” joins values, the source holds several entries; their conditions need not be identical. Equal values may be shown once. Read-outs that look alike come from different tables or passages of the source.

Assays:
[1] = biological target: cpSRP54 M domain (Arabidopsis thaliana) (UniProt P37107); assay: SPR
[2] = biological target: cpSRP54 (Arabidopsis thaliana) (UniProt P37107); assay: MST
[3] = biological target: LHCP L18 peptide (Arabidopsis thaliana); assay: ITC
[4] = biological target: cpSRP54 (Arabidopsis thaliana) (UniProt P37107); assay: FCS
[5] = biological target: LHCP L11 peptide (Arabidopsis thaliana); assay: FA
[6] = biological target: Alb3 C-terminus (Arabidopsis thaliana) (UniProt Q8LBP4); assay: FA
Sequence of Alb3 C-terminus (Arabidopsis thaliana) (Q8LBP4 339-462): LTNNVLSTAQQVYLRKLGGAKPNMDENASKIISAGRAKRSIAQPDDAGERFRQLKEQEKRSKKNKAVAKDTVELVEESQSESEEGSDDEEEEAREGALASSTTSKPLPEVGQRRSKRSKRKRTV

[7] = biological target: cpSRP54 peptide RRKRp10 RRKRp10 (Arabidopsis thaliana) (UniProt P37107)
Sequence of cpSRP54 peptide RRKRp10 RRKRp10 (Arabidopsis thaliana) (P37107 whole entry, looked up, tested part not stated): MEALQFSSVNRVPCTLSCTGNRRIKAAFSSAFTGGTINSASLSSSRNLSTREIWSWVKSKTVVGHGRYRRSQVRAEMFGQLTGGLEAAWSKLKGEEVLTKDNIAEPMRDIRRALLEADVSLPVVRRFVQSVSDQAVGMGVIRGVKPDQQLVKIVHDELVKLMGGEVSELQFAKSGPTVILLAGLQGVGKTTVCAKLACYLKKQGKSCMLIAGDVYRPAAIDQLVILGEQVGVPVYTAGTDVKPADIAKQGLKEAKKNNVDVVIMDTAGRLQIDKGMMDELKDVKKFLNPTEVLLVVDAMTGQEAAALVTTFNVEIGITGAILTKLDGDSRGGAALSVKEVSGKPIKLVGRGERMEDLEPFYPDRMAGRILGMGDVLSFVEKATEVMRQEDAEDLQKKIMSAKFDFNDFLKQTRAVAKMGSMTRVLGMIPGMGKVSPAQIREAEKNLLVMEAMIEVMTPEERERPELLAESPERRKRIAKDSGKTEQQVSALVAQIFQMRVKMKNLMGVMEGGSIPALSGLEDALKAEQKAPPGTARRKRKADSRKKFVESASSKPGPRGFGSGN

[8] = biological target: RRKRp10 (cpSRP54 C-terminal peptide) (Arabidopsis thaliana) (UniProt P37107)
Sequence of RRKRp10 (cpSRP54 C-terminal peptide) (Arabidopsis thaliana) (P37107 whole entry, looked up, tested part not stated): as above

[9] = biological target: LHCP L11 peptide (Arabidopsis thaliana); assay: FA; remark: listed apart in the source
[10] = biological target: LHCP L18 peptide (Arabidopsis thaliana); assay: ITC; remark: listed apart in the source
[11] = biological target: cpFtsY (Arabidopsis thaliana) (UniProt O80842); assay: FRET
Sequence of cpFtsY (Arabidopsis thaliana) (O80842 41-366): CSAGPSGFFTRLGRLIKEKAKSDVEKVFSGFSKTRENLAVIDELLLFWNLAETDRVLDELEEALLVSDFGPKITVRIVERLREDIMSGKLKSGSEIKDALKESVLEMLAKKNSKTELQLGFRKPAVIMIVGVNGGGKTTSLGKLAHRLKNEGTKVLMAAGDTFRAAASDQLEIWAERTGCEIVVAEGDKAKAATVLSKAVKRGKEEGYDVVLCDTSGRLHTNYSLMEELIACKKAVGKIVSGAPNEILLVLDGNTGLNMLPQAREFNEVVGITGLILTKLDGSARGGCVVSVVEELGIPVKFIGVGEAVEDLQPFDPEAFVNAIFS

[12] = biological target: cpFtsY (Arabidopsis thaliana) (UniProt O80842); assay: FRET; remark: listed apart in the source
[13] = biological target: cpFtsY (Arabidopsis thaliana) (UniProt O80842); assay: FRET; remark: listed apart in the source

Sequence of cpSRP54 (P37107 76-564): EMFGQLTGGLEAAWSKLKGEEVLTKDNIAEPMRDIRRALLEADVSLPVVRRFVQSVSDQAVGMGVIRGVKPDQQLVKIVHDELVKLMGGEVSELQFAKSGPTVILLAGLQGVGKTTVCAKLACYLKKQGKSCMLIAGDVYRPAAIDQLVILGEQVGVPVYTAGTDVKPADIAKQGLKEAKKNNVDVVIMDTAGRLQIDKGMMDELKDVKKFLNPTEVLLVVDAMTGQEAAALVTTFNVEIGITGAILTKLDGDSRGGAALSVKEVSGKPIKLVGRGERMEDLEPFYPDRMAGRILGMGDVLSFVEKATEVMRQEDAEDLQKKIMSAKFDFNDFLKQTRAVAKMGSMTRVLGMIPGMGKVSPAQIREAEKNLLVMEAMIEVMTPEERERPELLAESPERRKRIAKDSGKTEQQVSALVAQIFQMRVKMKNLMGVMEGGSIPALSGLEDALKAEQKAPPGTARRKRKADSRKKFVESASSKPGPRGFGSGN
Sequence of cpSRP54 (Arabidopsis thaliana) (P37107 76-564): as above
Sequence of cpSRP54 NG domain (P37107 76-370): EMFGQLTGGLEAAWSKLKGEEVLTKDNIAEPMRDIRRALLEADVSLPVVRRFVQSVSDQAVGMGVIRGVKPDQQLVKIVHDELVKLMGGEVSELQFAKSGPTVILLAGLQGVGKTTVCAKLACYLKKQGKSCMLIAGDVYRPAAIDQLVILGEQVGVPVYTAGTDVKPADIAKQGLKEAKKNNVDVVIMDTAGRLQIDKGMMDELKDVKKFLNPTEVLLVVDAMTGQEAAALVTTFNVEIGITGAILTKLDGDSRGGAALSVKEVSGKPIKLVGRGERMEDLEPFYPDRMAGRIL
Sequence of cpSRP54 M domain (Arabidopsis thaliana) (P37107 371-564): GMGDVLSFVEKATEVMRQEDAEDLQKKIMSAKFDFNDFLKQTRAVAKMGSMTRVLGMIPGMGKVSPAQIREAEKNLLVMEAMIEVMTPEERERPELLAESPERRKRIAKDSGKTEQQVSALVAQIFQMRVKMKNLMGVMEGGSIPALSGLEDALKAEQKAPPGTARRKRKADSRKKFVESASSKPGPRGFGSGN

Substance	Kd [1] [nM]	Kd [2] [nM]	Kd [3] [nM]	Kd [4] [nM]	Kd [5] [nM]	Kd [6]	Kd [7] [nM]	Kd [8] [nM]	Kd [9] [nM]	Kd [10]	Kd [11] [nM]	Kd [12] [nM]	Kd [13] [nM]
cpSRP43 (from UniProt O22265)	2.5	50	107	95	11	18000 nM and 12000 nM and 15000 nM	390	390	22	1170 nM and 322 nM	–	–	–
cpSRP54 (from UniProt P37107)	–	–	–	–	–	–	–	–	–	–	770	2340	130
cpSRP54 NG domain (from UniProt P37107)	–	–	–	–	–	–	–	–	–	–	–	12000	–
